“And” between values parts separate entries of the source, which are not always exact repeats. Equal values may be shown once. Read-outs that look alike come from different tables or passages of the source.
Legend:
[1] = biological target: CRF250-SOSIP, soluble HIV-1 envelope glycoprotein trimer (SOSIP.v7 based on the CRF250 HIV-1 isolate) (HIV-1); assay: flow cytometry of Jeko-1 cells edited at the native heavy and kappa loci, double staining with CRF250 SOSIP-APC and CRF250 SOSIP-PE
[2] = biological target: CRF250-SOSIP, soluble HIV-1 envelope glycoprotein trimer (SOSIP.v7 based on the CRF250 HIV-1 isolate) (HIV-1); assay: flow cytometry of edited Jeko-1 cells, HDRT by AAV, double staining with CRF250 SOSIP-APC and CRF250 SOSIP-PE
[3] = biological target: CRF250-SOSIP, soluble HIV-1 envelope glycoprotein trimer (SOSIP.v7 based on the CRF250 HIV-1 isolate) (HIV-1); assay: flow cytometry of edited Jeko-1 cells, HDRT as dsDNA, double staining with CRF250 SOSIP-APC and CRF250 SOSIP-PE
[4] = biological target: CRF250-SOSIP, soluble HIV-1 envelope glycoprotein trimer (SOSIP.v7 based on the CRF250 HIV-1 isolate) (HIV-1); assay: flow cytometry of primary murine B cells edited at native loci, HDRT as dsDNA, double staining with CRF250 SOSIP-APC and CRF250 SOSIP-PE
[5] = biological target: CRF250-SOSIP, soluble HIV-1 envelope glycoprotein trimer (SOSIP.v7 based on the CRF250 HIV-1 isolate) (HIV-1); assay: flow cytometry of primary murine B cells edited at native loci, HDRT by AAV, double staining with CRF250 SOSIP-APC and CRF250 SOSIP-PE
[6] = biological target: 16055-ConM-v8.1ds SOSIP trimer (HIV-1); assay: flow cytometry, primary murine B cells edited in the HCDR3, labeled 16055-ConM-v8.1ds SOSIP against surface IgM
SOSIP = assay: flow cytometry, APC-labeled SOSIP trimer against anti-IgM
[7] = biological target: CRF250-SOSIP, soluble HIV-1 envelope glycoprotein trimer (SOSIP.v7 based on the CRF250 HIV-1 isolate) (HIV-1); assay: flow cytometry of control primary murine B cells (RNP without HDRT), double staining with CRF250 SOSIP-APC and CRF250 SOSIP-PE
[8] = biological target: CRF250-SOSIP, soluble HIV-1 envelope glycoprotein trimer (SOSIP.v7 based on the CRF250 HIV-1 isolate) (HIV-1); assay: flow cytometry of control primary murine B cells (RNP without HDRT), upper row (IgH gRNAs), double staining with CRF250 SOSIP-APC and CRF250 SOSIP-PE
[9] = biological target: CRF250-SOSIP, soluble HIV-1 envelope glycoprotein trimer (SOSIP.v7 based on the CRF250 HIV-1 isolate) (HIV-1); assay: flow cytometry of control primary murine B cells (RNP without HDRT), lower rows (IgK gRNAs), double staining with CRF250 SOSIP-APC and CRF250 SOSIP-PE
[10] = biological target: CRF250-SOSIP, soluble HIV-1 envelope glycoprotein trimer (SOSIP.v7 based on the CRF250 HIV-1 isolate) (HIV-1); assay: flow cytometry of control primary murine B cells (RNP without HDRT), double staining with CRF250 SOSIP-APC and CRF250 SOSIP-FITC
[11] = biological target: CRF250-SOSIP, soluble HIV-1 envelope glycoprotein trimer (SOSIP.v7 based on the CRF250 HIV-1 isolate) (HIV-1); assay: flow cytometry of control primary murine B cells (RNP of the intron approach without HDRT), double staining with CRF250 SOSIP-APC and CRF250 SOSIP-PE
[12] = biological target: CRF250-SOSIP, soluble HIV-1 envelope glycoprotein trimer (SOSIP.v7 based on the CRF250 HIV-1 isolate) (HIV-1); assay: flow cytometry of control Jeko-1 cells (RNP without HDRT), double staining with CRF250 SOSIP-APC and CRF250 SOSIP-PE
[13] = biological target: CRF250-SOSIP, soluble HIV-1 envelope glycoprotein trimer (SOSIP.v7 based on the CRF250 HIV-1 isolate) (HIV-1); assay: as above; remark: listed apart in the source
[14] = biological target: CRF250-SOSIP, soluble HIV-1 envelope glycoprotein trimer (SOSIP.v7 based on the CRF250 HIV-1 isolate) (HIV-1); assay: flow cytometry of Jeko-1 cells edited at the native heavy-chain locus, double staining with CRF250 SOSIP-APC and CRF250 SOSIP-PE
[15] = biological target: CRF250-SOSIP, soluble HIV-1 envelope glycoprotein trimer (SOSIP.v7 based on the CRF250 HIV-1 isolate) (HIV-1)
[16] = biological target: CRF250-SOSIP, soluble HIV-1 envelope glycoprotein trimer (SOSIP.v7 based on the CRF250 HIV-1 isolate) (HIV-1); assay: flow cytometry of Jeko-1 cells edited with gRNA targeting JH6, staining with CRF250 SOSIP-APC against anti-IgM
[17] = biological target: CRF250-SOSIP, soluble HIV-1 envelope glycoprotein trimer (SOSIP.v7 based on the CRF250 HIV-1 isolate) (HIV-1); remark: listed apart in the source

Work on “10-1074 heavy and light chain variable genes introduced at the native heavy and kappa loci of Jeko-1 (antibody)” yielded a % of cells in the SOSIP-positive gate [1] of 3.09%, a % of cells in the SOSIP-positive gate [2] of 11.1% and a % of cells in the SOSIP-positive gate [3] of 3.05%.

“10-1074 heavy and light chain variable genes introduced at the native heavy and kappa loci of primar (antibody)” was tested, and the % of cells in the SOSIP-positive gate [4] was 0.95% and the % of cells in the SOSIP-positive gate [5] was 2.38%.

For “B-cell receptors of primary murine B cells edited to express the HCDR3 of the predicted unmutated common ancestor of the VRC26 family (VRC26-UCA) (antibody)”, the % of cells in the SOSIP gate [6] was 2.26%.

“B-cell receptors of primary murine B cells edited to express the PG9 HCDR3 (antibody)” showed a % of cells in the SOSIP gate [6] of 1.49%.

“B-cell receptors of primary murine B cells edited to express the PG16 HCDR3 (antibody)” was tested, and the % of cells in the SOSIP gate [6] was 1.02%.

Work on Negative control (antibody) yielded a % of cells above the SOSIP gate line (SOSIP) of 0.12%.

Work on No HDRT (antibody) yielded a % of cells in the SOSIP-positive gate [7] of 0.34%, a % of cells in the SOSIP-positive gate [8] of 0.44% and a % of cells in the SOSIP-positive gate [9] of 0.45%. For the same substance, the % of cells in the SOSIP-positive gate [10] was 0.17%, the % of cells in the SOSIP-positive gate [11] was 0.58% and the % of cells in the SOSIP-positive gate [12] was 0.12%. The % of cells in the SOSIP-positive gate [13] was 0.24%.

For “VRC26.25 heavy-chain variable gene introduced at the native heavy-chain locus of Jeko-1 cells (B-cell receptor on the cell surface) (antibody)”, the % of cells in the SOSIP-positive gate [14] was 7.12%, the % of cells in the SOSIP-positive gate [2] was 37.8% and the % of cells in the SOSIP-positive gate [15] was 4.43% and 1.12%. For the same substance, the % of cells in the SOSIP-positive gate [3] was 7.12% and the % of cells in the SOSIP-positive gate [16] was 5.24%.

With “VRC26.25-y heavy and light chain variable genes introduced at the native loci of primary murine B cells (B-cell receptor) (antibody)” the % of cells in the SOSIP-positive gate [4] was 1.78% and the % of cells in the SOSIP-positive gate [5] was 7.55%.

In the case of “VRC26.25-y heavy chain alone introduced into primary murine B cells (B-cell receptor with endogenous murine light chains) (antibody)”, the % of cells in the SOSIP-positive gate [17] is reported as 1.59% and 1.47% and 1%.
